What is called EC50 is the concentration needed to bring the measured effect to its halfway point.

For two molecules, EC50 and Relative binding activity results are on record in patent EP4772193A1.

Changes are numbered by the printed parent chain. Names may count otherwise.

Test [1] concerns the target recombinant human soluble gpNMB (recombinant human gpNMB-FLAG-His) (human) (UniProt Q14956). The test is described as follows: antigen ELISA. Background: In an ELISA, binding on a coated surface is turned into a signal by an enzyme label.
Test [2] shares this target. The test is described as follows: antigen ELISA, vs hGPN06-1_H1L1.

B1: hGPN06-1_H1L1 VL Y93A (antibody, V domains shown)
VH: QVQLVQSGAEVKKPGASVKVSCKASGYTFTDNWMGWVKQRPGQGLEWIGAIDPSDSFTNYNQNFKGRVTMTVDTSISTAYMELSRLRSDDSAVYFCTRSGYYGSPKLGGDYWGQGTLVTVSS
VL: EIVLTQSPSSLSASVGDRVTITCSASSSISYMHWYQQKSGTAPKLLIYSTSNLASGVPSRFSGSGSGTDFTFTISSLQPEDAATYYCHQWNSAPCTFGGGTKLEIK
Regarding B1, the EC50 in test [1] was determined as 25.3 nM. For the same molecule, in test [2], the Relative binding activity came to 0.

B2: hGPN06-1_H1L1 VH D55A (antibody, V domains shown)
VH: B1 VH with D55A
VL: B1 VL with A93Y
Take B2: the concentration giving a half-maximal response (EC50) in test [1] was found to be 31.5 nM. Moreover, in test [2], the Relative binding activity is 0.
